# Data reported in article doi:10.1101/2022.11.15.516577 (bioRxiv, 2022).
# Read-outs that look alike come from different tables or passages of the source.
# B1: C-terminally Halo-tagged bovine β-arrestin 2 (βArr2-Halo) (natural protein)
# chain: MGEKPGTRVFKKSSPNCKLTVYLGKRDFVDHLDKVDPVDGVVLVDPDYLKDRKVFVTLTCAFRYGREDLDVLGLSFRKDLFIANYQAFPPTPNPPRPPTRLQERLLRKLGQHAHPFFFTIPQNLPCSVTLQPGPEDTGKACGVDFEIRAFCAKSLEEKSHKRNSVRLVIRKVQFAPEKPGPQPSAETTRHFLMSDRSLHLEASLDKELYYHGEPLNVNVHVTNNSTKTVKKIKVSVRQYADICLFSTAQYKCPVAQVEQDDQVSPSSTFCKVYTITPLLSNNREKRGLALDGKLKHEDTNLASSTIVKEGANKEVLGILVSYRVKVKLVVSRGGDVSVELPFVLMHPKPHDHIALPRPQSAAPETDAPVDTNLIEFETNYATDDDIVFEDFARLRLKGLKDEDYDDQFC
# modifications: Halo-JF549 on the Halo-tag (single-molecule microscopy); Halo-R110 on the Halo-tag (BRET)
# What was measured:
# Experiment in all cases: single-molecule TIRF colocalisation with deconvolution of colocalisation times
# [1] = target: T1, N-terminally SNAP-tagged human β2-adrenergic receptor (SNAP-β2AR) (human, UniProt P07550 1-413, SNAP-Surface Alexa Fluor 647 on the SNAP-tag)
# [2] = target: T1, N-terminally SNAP-tagged human …; remark: listed apart in the source
# [3] = target: T1, N-terminally SNAP-tagged human …; remark: listed apart in the source
binder,measurement,setting,value
B1,fold increase in kon versus basal,[1],~1.4 fold
same,koff,[2],1.34 s⁻¹
same,fold increase in kon versus basal,[3],~1.8 fold
